Data from PMC10679481.

Key:
PKA-C-eGFP [1] = biological target: PKA-C-eGFP (UniProt P17612); assay: co-IP; nanobead-based sc-SiMPull: single HEK293T cells coexpressing PKA-C-eGFP and PKA-R-HA lysed in situ in microwells, anti-GFP-coated nanobeads, PKA-R-HA visualised by immunostaining with anti-HA and fluorophore-conjugated 2nd antibody
PKA-C-eGFP [2] = biological target: PKA-C-eGFP (UniProt P17612); assay: co-IP; nanobead-based sc-SiMPull: single HEK293T cells trapped in microwells and lysed in situ, anti-GFP-coated magnetic nanobeads capture PKA-C-eGFP, mCherry seen directly by confocal microscopy; control conditions (no cAMP); room temperature

Row | percent of GFP spots colocalized with the anti-HA (Alexa 561) spots (PKA-C-eGFP [1]) | percent of GFP and mCherry signals colocalized (PKA-C-eGFP [2]) | Substance
1 | 60% |  | PKA-R-HA (from UniProt P10644 1-381) (natural protein)
2 |  | 70% | PKA-R-mCherry (from UniProt P10644 1-381) (natural protein)
